Measured values reported in patent US20230357429A1 (JANUX THERAPEUTICS, published 2023).
Where a chain is given by its changes, count along the chain named. Numbers in names are those of the source. Where no end group is shown, it is not given here.

What was measured:
[1] = molecular target: T1, Peptide-11 (cysteine pairing not given here; also: biotinylated (site not given here)); test: ELISA: biotinylated peptide captured on neutravidin plate, Fab titrated, HRP secondary antibody
T1 peptide: VDFCALYNWPVCET

[2] = molecular target: T2, Peptide-16 (cysteine pairing not given here; also: biotinylated (site not given here)); test: as above
T2 peptide: IDFCLLYDWPVCAS

[3] = molecular target: T3, Peptide-15 (cysteine pairing not given here; also: biotinylated (site not given here)); test: as above
T3 peptide: LDFCKLYQWPVCFT

[4] = molecular target: T4, Peptide-22 (cysteine pairing not given here; also: biotinylated (site not given here)); test: as above
T4 peptide: VDFCTIYKWPVCEG

[5] = molecular target: T5, Peptide-21 (cysteine pairing not given here; also: biotinylated (site not given here)); test: as above
T5 peptide: IDFCSLYQWPVCGT

[6] = molecular target: T6, Peptide-19 (cysteine pairing not given here; also: biotinylated (site not given here)); test: as above
T6 peptide: PDFCQLYNWPVCAG

[7] = molecular target: T7, Peptide-24 (cysteine pairing not given here; also: biotinylated (site not given here)); test: as above
T7 peptide: SVLFCVKNLYCWVT

[8] = molecular target: T8, Peptide-30 (cysteine pairing not given here; also: biotinylated, site not given here); test: ELISA, Fab on captured biotin-peptide
T8 peptide: TSLICFRNVYCWNV

[9] = molecular target: T7, Peptide-24; test: ELISA, Fab on captured biotin-peptide
Description: (§1) Binding was measured in a standard ELISA format. […] Bound TBDs were detected using a standard horse radish peroxidase conjugate secondary antibody. The ELISA signal was plotted versus the log-scale concentration of TBD. The concentrations of TBD required to observe half maximal binding signal (EC₅₀s) were calculated using Graphpad Prism software.

[10] = molecular target: T9, Peptide-25 (cysteine pairing not given here; also: biotinylated (site not given here)); test: ELISA, Fab on captured biotin-peptide; Table 19 peptide set (separate ELISA run)
T9 peptide: VDFCKIYSWPVCHQ

[11] = molecular target: T10, Peptide-29 (cysteine pairing not given here; also: biotinylated, site not given here); test: ELISA: biotinylated peptide captured on neutravidin plate, Fab titrated, HRP secondary antibody
T10 peptide: SYLVCVKNVYCWTA

[12] = molecular target: T11, Peptide-58 (cysteine pairing not given here; also: biotinylated, site not given here); test: ELISA, Fab on captured biotin-peptide
T11 peptide: VEICKQWFYTVCLS

[13] = molecular target: T12, Peptide-44 (cysteine pairing not given here; also: biotinylated, site not given here); test: ELISA, Fab on captured biotin-peptide
T12 peptide: VEFCKQWTWFGCMT

[14] = molecular target: T9, Peptide-25; test: ELISA, Fab on captured biotin-peptide; Table 18 peptide set (separate ELISA run)
Description: as §1

B1: TBD-1 wt (Fab, V domains shown)
VH: QVQLQQSGSELKKPGASVKVSCKASGYTFTNYGMNWVKQAPGQGLKWMGWINTYTGEPTYTDDFKGRFAFSLDTSVSTAYLQISSLKADDTAVYFCARGGFGSSYWYFDVWGQGSLVTVSS
VL: DIQLTQSPSSLSASVGDRVSITCKASQDVSIAVAWYQQKPGKAPKLLIYSASYRYTGVPDRFSGSGSGTDFTLTISSLQPEDFAVYYCQQHYITPLTFGAGTKVEIKR
notes: Fab; the heavy chain entry is VH-CH1; also called wild-type anti-TROP2 Fab (hRS7); TROP2 Fab
- binding result [1]: binds
- binding result [2]: binds
- binding result [3]: binds
- binding result [4]: binds
- binding result [5]: binds
- binding result [6]: binds
- binding result [7]: binds
- EC50 [8]: 9.1 nM

B2: TBD-17 (HC S104A) (Fab, V domains shown)
VH: B1 VH with S104A
VL: B1 VL
notes: Fab; also called HC S104A mutant
- EC50 [9]: 133 nM

B3: TBD-21 (HC F108A) (Fab, V domains shown)
VH: B1 VH with F108A
VL: B1 VL
notes: Fab; also called HC F108A mutant
- EC50 [9]: 142 nM

B4: TBD-11 (HC R98A) (Fab, V domains shown)
VH: B1 VH with R98A
VL: B1 VL
notes: Fab; also called HC R98A mutant
- EC50 [10]: 453 nM
- binding result [11]: binds
- EC50 [12]: 10.7 nM
- EC50 [13]: 112 nM
- EC50 [14]: 1000 nM
